The target in the assay is T1, CRM1^HA (Mus musculus, UniProt Q6P5F9, L431A/V430A/V432A).
T1 construct: His-ZZ (cleaved yes); made in house; host or cells: Escherichia coli BL21-CodonPlus (DE3)
Nature of the assay: Isothermal titration calorimetry, CRM1^HA / NES. Conditions: ITC, TFP-NES titrated onto CRM1^HA, 20°C, 20 mM HEPES pH 7.4; rounded; read-out: KD. It is filed as binding. As for the experimental part: Isothermal titration calorimetry (ITC)
ITC measurements were carried out using a VIP-ITC MicroCalorimeter (MicroCal, Inc., Northampton, MA). TFP and YFP constructs, as well as CRM1^HA, were dialyzed in a buffer containing 20 mM HEPES, pH 7.4, 50 mM NaCl, 1 mM TCEP, 1 mM MgCl2, and degassed prior to the experiment. Untagged peptides (AS: QDLCLAVEEVSLRK, AL: EAIQDLCLAVEEVSLRK, ES: QDLWQSLAQVSLRK and EL: EAIQDLWQSLAQVSLRK), N-acetylated and 95% pure, were purchased from Proteogenix (Schiltigheim, France) and resuspended in the ITC buffer. Measurements were performed at 20°C. TFP-NES, YFP-NES or NES peptides at 35–180 μM were titrated onto CRM1^HA at 2–14 μM. Injections of 6 μL were performed at 320 seconds interval (the first injection always was of 1 μL and is not considered in data analysis). […]
The reaction heat of each injection is related to the calorimetric enthalpy of binding, ΔH^0. The binding isotherms, ΔH^0 vs. molar ratio, were analyzed with an independent binding sites model using MicroCal Origin software. […] The Gibbs free energy of binding ΔG^0 and the entropy ΔS^0 are determined from the basic thermodynamic expressions: ΔG^0 = -RTlnKA = ΔH^0−TΔS^0, where R and T are the gas constant and the absolute temperature, respectively. […]
For orientation: Isothermal titration calorimetry measures the heat released or taken up as one component is titrated into another.

Numbering of substitutions follows the chain as printed.

T1 sequence (Q6P5F9 1-1062 V430A/L431A/V432A limits assumed): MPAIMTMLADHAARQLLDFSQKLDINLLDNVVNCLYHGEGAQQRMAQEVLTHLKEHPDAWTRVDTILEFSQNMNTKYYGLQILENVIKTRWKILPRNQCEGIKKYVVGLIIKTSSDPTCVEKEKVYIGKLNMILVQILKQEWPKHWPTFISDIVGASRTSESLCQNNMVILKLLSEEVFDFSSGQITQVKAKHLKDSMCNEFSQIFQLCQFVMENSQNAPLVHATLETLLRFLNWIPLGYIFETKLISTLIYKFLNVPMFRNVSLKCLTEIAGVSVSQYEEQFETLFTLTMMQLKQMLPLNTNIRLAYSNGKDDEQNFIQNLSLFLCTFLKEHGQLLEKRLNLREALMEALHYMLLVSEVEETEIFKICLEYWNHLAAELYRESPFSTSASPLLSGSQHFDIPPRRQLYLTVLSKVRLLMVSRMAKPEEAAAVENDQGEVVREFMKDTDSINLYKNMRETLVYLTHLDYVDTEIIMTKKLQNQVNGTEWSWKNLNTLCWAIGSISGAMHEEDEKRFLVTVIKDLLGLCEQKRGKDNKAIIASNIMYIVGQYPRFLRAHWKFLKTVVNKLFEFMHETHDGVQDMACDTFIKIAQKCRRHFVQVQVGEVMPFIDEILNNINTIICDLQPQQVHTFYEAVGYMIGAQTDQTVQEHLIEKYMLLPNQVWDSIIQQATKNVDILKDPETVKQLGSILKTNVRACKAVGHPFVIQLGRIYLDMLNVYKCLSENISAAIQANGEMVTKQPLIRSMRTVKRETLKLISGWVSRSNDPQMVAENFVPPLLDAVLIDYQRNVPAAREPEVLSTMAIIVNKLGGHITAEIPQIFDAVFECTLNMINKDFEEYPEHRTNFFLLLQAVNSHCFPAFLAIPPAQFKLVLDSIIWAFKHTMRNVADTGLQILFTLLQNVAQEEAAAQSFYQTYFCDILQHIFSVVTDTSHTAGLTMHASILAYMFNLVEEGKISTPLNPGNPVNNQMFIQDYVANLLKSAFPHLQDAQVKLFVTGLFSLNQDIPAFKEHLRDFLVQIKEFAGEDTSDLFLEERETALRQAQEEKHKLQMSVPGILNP

B1: NPMmutE: AML-associated NPM mutant E; in b62 the value is for its NES as TFP construct (protein)
chain: MEDSMDMDMSPLRPQNYLFGCELKADKDYHFKVDNDENEHQLSLRTVSLGAGAKDELHIVEAEAMNYEGSPIKVTLATLKMSVQPTVSLGGFEITPPVVLRLKCGSGPVHISGQHLVAVEEDAESEDEEEEDVKLLSISGKRSAPGGGSKVPQKKVKLAADEDDDDDDEEDDDEDDDDDDFDDEEAEEKAPVKKSIRDTPAKNAQKSNQNGKDSKPSSTPRSKGQESFKKQEKTPKTPKGPSSVEDIKAKMQASIEKGGSLPKVEAKFINYVKNCFRMTDQEAIQDLWQSLAQVSLRK
modifications: full-length mutant E, pentamer (SEC); for the b62 value only the NES DLWQSLAQVSLRK as TFP fusion was assayed
As to B1, the equilibrium dissociation constant (Kd) came out at 1000 nM.

B2: NPMmutA: AML-associated NPM mutant A; in b62 the value is for its NES as TFP construct (protein)
chain: B1 chain with W288C, Q289L, S290A, L291V, A292E, Q293E
modifications: full-length mutant A, pentamer (SEC); for the b62 value only the NES DLCLAVEEVSLRK as TFP fusion was assayed
B2: the Kd was found to be 2400 nM.

What is called Kd is the concentration at which binding is half-saturated.

The values above are taken from article PMC4474691, “Leukemia-Associated Mutations in Nucleophosmin Alter Recognition by CRM1: Molecular Basis of Aberrant Transport” (PLoS ONE, 2015).
